The record followed here is patent US20200369772A1 (ABBA THERAPEUTICS, published 2020).

What is called EC50 is the concentration giving half of the maximal effect. A high value points to a less potent agent. By IC50 is commonly meant the point on the concentration scale where inhibition reaches its midpoint.

Test [1] deals with T1, human PD-L2 (full-length, on cells) (human, UniProt Q9BQ51 20-273).
T1 chain: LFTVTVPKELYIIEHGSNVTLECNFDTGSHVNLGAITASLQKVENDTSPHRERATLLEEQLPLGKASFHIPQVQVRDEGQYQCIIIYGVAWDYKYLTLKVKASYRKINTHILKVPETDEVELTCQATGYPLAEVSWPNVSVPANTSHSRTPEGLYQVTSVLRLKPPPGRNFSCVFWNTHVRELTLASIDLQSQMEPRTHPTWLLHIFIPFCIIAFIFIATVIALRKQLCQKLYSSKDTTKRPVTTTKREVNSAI
Description: FACS, NCI-H226 cells. The procedure, abridged: (§1)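 Binding EC50 values come from non-linear fits, made in GraphPad Prism, of percentage of maximal binding plotted against concentration. The underlying binding to endogenous PD-L2 was measured by BD FACSCalibur flow cytometry on 1.5×10⁵ NCI-H226 human lung squamous carcinoma cells, with detection by APC-labelled goat anti-rat IgG (1:2000, 20 min, 4° C).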
For orientation: A flow cytometer gives signals particle by particle.

The target of test [2] is T2, human PD-L2 (full-length, on cells) (human, UniProt Q9BQ51 20-273).
T2 construct: whole, on cells; CHO-K1 cells stably expressing full-length human PD-L2; also endogenous on NCI-H226 and transfected in Jurkat cells; also called hPD-L2; CHO-K1/hPD-L2
T2 sequence (looked up): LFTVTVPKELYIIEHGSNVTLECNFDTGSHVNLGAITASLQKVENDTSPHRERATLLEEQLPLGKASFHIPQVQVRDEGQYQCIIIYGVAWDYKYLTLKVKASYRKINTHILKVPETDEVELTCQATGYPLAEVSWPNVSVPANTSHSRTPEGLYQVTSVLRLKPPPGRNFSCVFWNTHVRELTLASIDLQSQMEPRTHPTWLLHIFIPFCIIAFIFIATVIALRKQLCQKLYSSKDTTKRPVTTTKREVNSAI
Put plainly: hybridoma supernatant screen on cells expressing human PD-L2.

The target in test [3] is T3, human PD-L1 (full-length, on cells) (human, UniProt Q9NZQ7 19-290).
T3 construct: whole, on cells; HEK293 cells stably expressing full-length human PD-L1
Description: FACS on HEK293 cells stably expressing full-length human PD-L1. On the procedure: (§2) The ability of anti-PD-L2 antibodies binding to mouse PD-L2, human PD-L1 or cyno PD-L2 was determined by FACS. HEK293 cells stably expressing full-length monkey PD-L2, mouse PD-L2 or human PD-L1 were established, subcloned and verified. For binding assay, 1.5×10⁵ cells in 100 μl of FACSwash buffer were incubated with individual anti-PD-L2 antibodies (0.5 μg/ml) for 30 min. After three times of washing, the cells were re-suspended in FACSwash buffer containing FITC-labelled goat-anti-rat IgG (Thermo Fisher, 1:1000) or APC-labelled goat-anti-ratIgG (Biolegend, Clone Poly4054) at a 1:2000 dilution for 20 min at 4° C., washed three times and subsequently subjected to FACS analysis. FACS data was analysed using FlowJo Software and depicted as histograms including secondary antibody only controls.

Test [4] addresses T4, mouse PD-L2 (full-length, on cells) (mouse, UniProt Q9WUL5 20-247).
T4 construct: whole, on cells; HEK293 cells stably expressing full-length mouse PD-L2
T4 sequence (looked up): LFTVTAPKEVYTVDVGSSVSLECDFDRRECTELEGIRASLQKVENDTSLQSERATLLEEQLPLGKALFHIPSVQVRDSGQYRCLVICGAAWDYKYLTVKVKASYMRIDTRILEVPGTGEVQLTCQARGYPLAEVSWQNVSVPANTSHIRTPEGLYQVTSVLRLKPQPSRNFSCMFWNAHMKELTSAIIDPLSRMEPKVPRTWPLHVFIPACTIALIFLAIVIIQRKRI
Put plainly: FACS on HEK293 cells stably expressing full-length mouse PD-L2. On the procedure:
as §2

The target of test [5] is T1, human PD-L2 (full-length, on cells). Put plainly: FACS, CHO-K1 expressing human PD-L2. The procedure, abridged: (§3)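 Binding EC50 values were derived in GraphPad Prism by non-linear curve fitting of percentage of maximal binding versus concentration. The binding data came from flow cytometry on a BD FACSCalibur, using CHO-K1 cells stably expressing full-length human PD-L2. Detection used APC-labelled anti-rat IgG or anti-human IgG Fc, according to the antibody format, applied for 20 min at 4° C.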

Test [6] deals with T5, recombinant human PD-L2-Fc-biotin (human, UniProt Q9BQ51 20-220, biotin).
T5 chain: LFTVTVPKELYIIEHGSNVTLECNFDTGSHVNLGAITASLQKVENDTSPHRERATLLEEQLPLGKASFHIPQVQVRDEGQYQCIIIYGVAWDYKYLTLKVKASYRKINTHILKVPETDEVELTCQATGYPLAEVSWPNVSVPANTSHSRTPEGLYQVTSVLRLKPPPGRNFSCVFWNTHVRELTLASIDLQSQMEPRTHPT
Put plainly: blocking of hPD-L2 binding to HEK293-hPD-1 cells. The procedure, abridged:
(§4)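 After 60 min at 4° C in 100 μl, mixtures of serially diluted antibody (0.03 ng/ml-0.5 μg/ml) and recombinant human PD-L2-Fc-biotin (5 ng/ml, 100 pM) were given 30 min at 4° C on 1.5×10⁵ HEK293 cells stably expressing human PD-1. Fluorochrome-conjugated streptavidin and flow cytometry measured the bound ligand against control wells marking 0% and 100% binding. IC50 values came from non-linear curve fitting in GraphPad Prism.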

For test [7], the target named is T1, human PD-L2 (full-length, on cells). Description: blocking of hPD-1 binding to CHO-K1/hPD-L2 cells. In short, it runs like this:
(§5)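 CHO-K1 cells (1.5×10⁵) stably expressing human PD-L2 were incubated with serially diluted antibody (0.25 ng/ml-4 μg/ml) for 30 min at 4° C and washed. They were then incubated with 0.5 μg/ml recombinant human PD-1-mouse Fc for 30 min at 4° C and stained with fluorochrome-conjugated anti-mouse IgG2a (1:200) for 20 min at 4° C. Bound PD-1 was read by flow cytometry, with unspecific IgG wells setting 0% and 100% binding. IC50 came from non-linear curve fitting in GraphPad Prism.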

For test [8] the target is unchanged. Put plainly: FACS binding to CHO-K1 cells expressing human PD-L2. In short, it runs like this: as §3
Test [9] shares this target. Description: FACS blocking of PD-1 binding to CHO-K1/hPD-L2; high antigen concentration. The procedure, abridged:
as §5

Test [10] has as its target T5, recombinant human PD-L2-Fc-biotin. Description: FACS blocking of hPD-L2 binding to HEK293T-hPD-1; low antigen concentration. The procedure, abridged: as §4
For test [11], the target named is T2, human PD-L2 (full-length, on cells). Description: FACS binding on cells expressing human PD-L2 (per the examples).
For test [12], the target named is T1, human PD-L2 (full-length, on cells). Put plainly: FACS, NCI-H226 cells. In short, it runs like this: as §1
The target is the same in test [13]. Description: FACS, CHO-K1 expressing human PD-L2. The procedure, abridged: as §3
For test [14] the target is unchanged. Put plainly: FACS binding to CHO-K1 cells expressing human PD-L2. In short, it runs like this: as §3
The target is the same in test [15]. Put plainly: FACS blocking of PD-1 binding to CHO-K1/hPD-L2; high antigen concentration. In short, it runs like this: as §5
Test [16] addresses T5, recombinant human PD-L2-Fc-biotin. Description: blocking of PD-L2 - PD-1 interaction (cell binding); low antigen concentration. In short, it runs like this: as §4

T3 sequence (Q9NZQ7 19-290): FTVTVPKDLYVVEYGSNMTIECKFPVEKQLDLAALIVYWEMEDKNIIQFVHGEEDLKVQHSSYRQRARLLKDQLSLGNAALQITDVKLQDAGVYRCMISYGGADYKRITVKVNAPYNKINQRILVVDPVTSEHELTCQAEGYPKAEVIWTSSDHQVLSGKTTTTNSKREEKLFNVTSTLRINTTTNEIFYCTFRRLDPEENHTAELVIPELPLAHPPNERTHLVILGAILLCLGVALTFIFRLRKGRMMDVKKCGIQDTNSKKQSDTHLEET

B1: 11C11-H5 (antibody, V domains shown)
VH: QVQLVESGGGVVQPGRSLRLSCAASGFAFSAYGMHWVRQAPGKGLEWVAISWYDGSNNYHADSVKGRFTISRDSSKNTLYLQMNSLRAEDTAVYYCAKSIGVARHYYYGMDVWGQGTTVTVSS
VL: SYELTQPPSVSVSPGQTASITCSGEELGDKYACWYQQKPGQSPVLVIYQDSKRPSGIPERFSGSNSGNAATLTISGTQAMDEADYYCQAWDSITVVFGGGTKLTVLG
notes: Both formats under this entry
Take B1: the EC50 in test [1] was found to be 0.131 nM; in test [5], 0.346 nM; in [8], 0.81 nM. Moreover, the figures for the binding result in test [2], in test [3] and in test [4] were “binds”, “no binding (tested: 0.5 µg/ml)” and “no binding (tested: 0.5 µg/ml)”, respectively. For the same molecule, the IC50 came out at 0.012 nM in [6], 0.41 nM in test [7], 0.527 nM in test [9] and 0.0149 nM in test [10].

B2: 19C3-B3 (antibody, V domains shown)
VH: QVQLVESGGGVVQPGRSLRLSCAASGFAFSAYGMHWVRQAPGKGLEWVAISWYDGSNNYHADSVKGRFTISRDSSKNTLYLQMNSLRAEDTAVYYCAKSIGVARHYYYGMDVWGQGTTVTVSS
VL: SYELTQPPSVSVSPGQTASITCSGEELGDKYACWYQQKPGQSPLLVIYQDSKRPSGIPERFSGSNSGNAATLTISGTQAMDEADYYCQAWDSITVIFGGGTKLTVLG
notes: Both formats under this entry; also called 19C3-C3
Take B2: the values for the EC50 in test [1], in test [5] and in [8] were 0.102 nM, 0.311 nM and 0.44 nM, respectively. The binding result is recorded as “no binding (tested: 0.5 µg/ml)” in [3], “no binding (tested: 0.5 µg/ml)” in test [4] and “binds” in [11]. The IC50 in [6] stood at 0.013 nM; in test [7], 0.43 nM; in test [9], 0.454 nM; in [10], 0.0151 nM.

B3: 1A1-C2 (antibody, V domains shown)
VH: QVQLQESGPGLVKPSGTLSLTCAVSGGSIGSSYWWTWIRQSPGKGLEWIGEIFHSGPTNYTPSLKSRVTISVDKSKNQFSLQLRSVTAADTAVYYCARTTGTTGFYYGMDVWGQGTTVTVSS
VL: EVVLTQSPATLYVTPGERVTLSCRASQSVSSNLAWYQQKPGQAPRLLIYGASTRATGIPARFSGSGSGTEFTLTISSLQSEDFAVYYCQQFNNWPRTFGLGTKVEIT
In the case of B3, the EC50 in [1] turned out to be 0.254 nM; in [5], 0.6 nM; in test [8], 0.62 nM. Also, the figures for the binding result in [2], in [3] and in test [4] were “binds”, “no binding (tested: 0.5 µg/ml)” and “no binding (tested: 0.5 µg/ml)”, respectively. In addition, the 50% inhibitory concentration (IC50) in [6] stood at 0.03 nM; in test [7] it was 0.49 nM; in [9] it was 0.706 nM; in [10], 0.0408 nM.

B4: 8B5-B1 (antibody, V domains shown)
VH: EVQLLESGGGLVQPGGSLKLSCAASGFTFSSYAMFWVRQAPGEGLAWVSAITGSGDHTYYADSVKDHFTISRDNSKNTLYLQMNSLKAEDTAVYYCAKDASGNSYGFPYWYFDLWGRGTLVTVSS
VL: QSALTQPASVSGSPGQSITISCTGTSSDVAGYNFVSWYQHHPGKTPKLMIYDVTNRPSGVSTRFSGSKSGNTASLTISGLQAEDEADYYCSSFTSATTLVFGGGTKLTVLG
notes: Both formats under this entry
Turning to B4, the EC50 was 1.52 nM in [1], 2.18 nM in test [5] and 1.09 nM in test [8]. Moreover, the binding result in test [2] was “binds”; in test [3], “no binding (tested: 0.5 µg/ml)”; in test [4], “no binding (tested: 0.5 µg/ml)”. The IC50 came to 0.017 nM in [6], 0.94 nM in test [7], 2.02 nM in test [9] and 0.0563 nM in test [10].

B5: 10D1-G1 (antibody, V domains shown)
VH: QVQLQESGPGLVKPSGTLSLTCAVSGGSISSSYWWSWVRQPPGKGLEWIGEIFHIGSTNYNPSLRSRVTISVVKSKNQFSLNLNSVTAADTAVYFCARVSGGYGYFSGMDVWGQGTTVTVSS
VL: DIQMTQSPSSLSASVGDRVTITCRASQGIRNDLGWYQQKPGKAPKRLIYGASSLQSGVPSRFSGSGSGTEFTLTISSLQPEDFATYYCLQHNSYPRTFGQGTKVEIK
notes: Both formats under this entry
For the molecule B5, the half-maximal effective concentration (EC50) in test [12] stood at 0.146 nM; in [13], 0.408 nM; in test [8], 0.38 nM; in test [14] it was 0.37 nM. For the same molecule, the results for the binding result in test [3], in test [4] and in test [11] were “no binding (tested: 0.5 µg/ml)”, “no binding (tested: 0.5 µg/ml)” and “binds”, respectively. Also, the IC50 is 0.014 nM in test [6], 0.4 nM in [7], 0.343 nM in test [15] and 0.0252 nM in test [16].
